Like-named read-outs stand apart in the source and are kept apart here.
Key:
[1] = tested on: propionyl-CoA synthetase (Pcs)
purified protein [2] = substrate: CC(C)(COP(=O)(O)OP(=O)(O)OC[C@H]1O[C@@H](n2cnc3c(N)ncnc32)[C@H](O)[C@@H]1OP(=O)(O)O)[C@@H](O)C(=O)NCCC(=O)NCCSC(=O)CC(=O)O; assay: purified protein; conditions: NADPH co-substrate; full-length Mcr assumed (McrC also made)
[3] = substrate: O=CCC(=O)O; assay: malonic semialdehyde made by McrC; type: biochemical, Escherichia coli; conditions: L-glutamate co-substrate, NH4Cl
[4] = substrate: N[C@@H](CCC(=O)O)C(=O)O; assay: malonic semialdehyde made by McrC; type: biochemical, Escherichia coli; conditions: malonic semialdehyde co-substrate, NH4Cl
purified protein [5] = substrate: CC(C)(COP(=O)(O)OP(=O)(O)OC[C@H]1O[C@@H](n2cnc3c(N)ncnc32)[C@H](O)[C@@H]1OP(=O)(O)O)[C@@H](O)C(=O)NCCC(=O)NCCSC(=O)CCN; assay: purified protein; conditions: NADPH, NaHCO3, excess Ccr
purified protein [6] = substrate: C=CC(=O)SCCNC(=O)CCNC(=O)[C@H](O)C(C)(C)COP(=O)(O)OP(=O)(O)OC[C@H]1O[C@@H](n2cnc3c(N)ncnc32)[C@H](O)[C@@H]1OP(=O)(O)O; assay: purified protein; conditions: NADPH co-substrate
purified protein [7] = substrate: NC(=O)C1=CN([C@@H]2O[C@H](COP(=O)(O)OP(=O)(O)OC[C@H]3O[C@@H](n4cnc5c(N)ncnc54)[C@H](OP(=O)(O)O)[C@@H]3O)[C@@H](O)[C@H]2O)C=CC1; assay: purified protein; conditions: acrylyl-CoA co-substrate; varied: cofactor
purified protein [8] = substrate: O=C(O)C[C@H](O)C(=O)O; assay: purified protein; conditions: succinyl-CoA co-substrate
purified protein [9] = substrate: CC(C)(COP(=O)(O)OP(=O)(O)OC[C@H]1O[C@@H](n2cnc3c(N)ncnc32)[C@H](O)[C@@H]1OP(=O)(O)O)[C@@H](O)C(=O)NCCC(=O)NCCSC(=O)CCC(=O)O; assay: purified protein
purified protein [10] = substrate: CC(C)(COP(=O)(O)OP(=O)(O)OC[C@H]1O[C@@H](n2cnc3c(N)ncnc32)[C@H](O)[C@@H]1OP(=O)(O)O)[C@@H](O)C(=O)NCCC(=O)NCCSC(=O)/C=C/C(=O)O; assay: purified protein

Molecule `Nc1ncnc2c1ncn2[C@@H]1O[C@H](COP(=O)(O)OP(=O)(O)OP(=O)(O)O)[C@@H](O)[C@H]1O` [ATP] has a Km ([1]; read-out: app. Km, 3-hydroxypropionate, NADPH co-substrates) of 10 µM.

In the case of `O=C(O)CCO` [3-hydroxypropionate], the Km ([1]; read-out: app. Km, ATP, NADPH co-substrates) is reported as 85 µM.

B1: Malonyl-CoA reductase (Mcr) (Chloroflexus aurantiacus J-10-fl) (protein)
chain: MSGTGRLAGKIALITGGAGNIGSELTRRFLAEGATVIISGRNRAKLTALAERMQAEAGVPAKRIDLEVMDGSDPVAVRAGIEAIVARHGQIDILVNNAGSAGAQRRLAEIPLTEAELGPGAEETLHASIANLLGMGWHLMRIAAPHMPVGSAVINVSTIFSRAEYYGRIPYVTPKAALNALSQLAARELGARGIRVNTIFPGPIESDRIRTVFQRMDQLKGRPEGDTAHHFLNTMRLCRANDQGALERRFPSVGDVADAAVFLASAESAALSGETIEVTHGMELPACSETSLLARTDLRTIDASGRTTLICAGDQIEEVMALTGMLRTCGSEVIIGFRSAAALAQFEQAVNESRRLAGADFTPPIALPLDPRDPATIDAVFDWAGENTGGIHAAVILPATSHEPAPCVIEVDDERVLNFLADEITGTIVIASRLARYWQSQRLTPGARARGPRVIFLSNGADQNGNVYGRIQSAAIGQLIRVWRHEAELDYQRASAAGDHVLPPVWANQIVRFANRSLEGLEFACAWTAQLLHSQRHINEITLNIPANISATTGARSASVGWAESLIGLHLGKVALITGGSAGIGGQIGRLLALSGARVMLAARDRHKLEQMQAMIQSELAEVGYTDVEDRVHIAPGCDVSSEAQLADLVERTLSAFGTVDYLINNAGIAGVEEMVIDMPVEGWRHTLFANLISNYSLMRKLAPLMKKQGSGYILNVSSYFGGEKDAAIPYPNRADYAVSKAGQRAMAEVFARFLGPEIQINAIAPGPVEGDRLRGTGERPGLFARRARLILENKRLNELHAALIAAARTDERSMHELVELLLPNDVAALEQNPAAPTALRELARRFRSEGDPAASSSSALLNRSIAAKLLARLHNGGYVLPADIFANLPNPPDPFFTRAQIDREARKVRDGIMGMLYLQRMPTEFDVAMATVYYLADRNVSGETFHPSGGLRYERTPTGGELFGLPSPERLAELVGSTVYLIGEHLTEHLNLLARAYLERYGARQVVMIVETETGAETMRRLLHDHVEAGRLMTIVAGDQIEAAIDQAITRYGRPGPVVCTPFRPLPTVPLVGRKDSDWSTVLSEAEFAELCEHQLTHHFRVARKIALSDGASLALVTPETTATSTTEQFALANFIKTTLHAFTATIGVESERTAQRILINQVDLTRRARAEEPRDPHERQQELERFIEAVLLVTAPLPPEADTRYAGRIHRGRAITV
B1 showed a Km (purified protein [2]) of 1.3 µM.

B2: 4-aminobutyrate-2-oxoglutarate transaminase (GabT) (Escherichia coli K-12) (protein)
chain: MNSNKELMQRRSQAIPRGVGQIHPIFADRAENCRVWDVEGREYLDFAGGIAVLNTGHLHPKVVAAVEAQLKKLSHTCFQVLAYEPYLELCEIMNQKVPGDFAKKTLLVTTGSEAVENAVKIARAATKRSGTIAFSGAYHGRTHYTLALTGKVNPYSAGMGLMPGHVYRALYPCPLHGISEDDAIASIHRIFKNDAAPEDIAAIVIEPVQGEGGFYASSPAFMQRLRALCDEHGIMLIADEVQSGAGRTGTLFAMEQMGVAPDLTTFAKSIAGGFPLAGVTGRAEVMDAVAPGGLGGTYAGNPIACVAALEVLKVFEQENLLQKANDLGQKLKDGLLAIAEKHPEIGDVRGLGAMIAIELFEDGDHNKPDAKLTAEIVARARDKGLILLSCGPYYNVLRILVPLTIEDAQIRQGLEIISQCFDEAKQ
B2 gave a Km [3] of 98 µM and a Km [4] of 7 µM.

B3: β-alanyl-CoA:ammonia lyase (βCal) (Allostigmatella aurantiaca DW4/3-1) (protein)
chain: MSTKAIIRLRMSSHDAHYGGNLVDGARMLGLFGDVATELCIRHDGDEGLFRAYDSVEFLAPVYAGDFIEAEGEILSEGNTSRKMRFEARKVIRPRTDVNDSAADLLSEPVVVCRATGTCVVPKDKQRIPR
Molecule B3 has a Km (purified protein [5]) of 70 µM.

B4: Ccr (Methylorubrum extorquens AM1) (protein)
chain: MAASAAPAWTGQTAEAKDLYELGEIPPLGHVPAKMYAWAIRRERHGPPEQSHQLEVLPVWEIGDDEVLVYVMAAGVNYNGVWAGLGEPISPFDVHKGEYHIAGSDASGIVWKVGAKVKRWKVGDEVIVHCNQDDGDDEECNGGDPMFSPTQRIWGYETGDGSFAQFCRVQSRQLMARPKHLTWEEAACYTLTLATAYRMLFGHAPHTVRPGQNVLIWGASGGLGVFGVQLCAASGANAIAVISDESKRDYVMSLGAKGVINRKDFDCWGQLPTVNSPEYNTWLKEARKFGKAIWDITGKGNDVDIVFEHPGEATFPVSTLVAKRGGMIVFCAGTTGFNITFDARYVWMRQKRIQGSHFAHLKQASAANQFVMDRRVDPCMSEVFPWDKIPAAHTKMWKNQHPPGNMAVLVNSTRAGLRTVEDVIEAGPLKAM
For B4, the Km (purified protein [6]) was 780 µM and the Km (purified protein [7]) was 210 µM.

B5: succinyl-CoA:L-malate CoA transferase (Smt) (Chloroflexus aurantiacus) (protein)
chain 1: MPPTGEEPSGHAESKPPASDPMSTPGTGQEQLPLSGIRVIDVGNFLAGPYAASILGEFGAEVLKIEHPLGGDPMRRFGTATARHDATLAWLSEARNRKSVTIDLRQQEGVALFLKLVAKSDILIENFRPGTMEEWGLSWPVLQATNPGLIMLRVSGYGQTGPYRRRSGFAHIAHAFSGLSYLAGFPGETPVLPGTAPLGDYIASLFGAIGILIALRHKEQTGRGQLIDVGIYEAVFRILDEIAPAYGLFGKIREREGAGSFIAVPHGHFRSKDGKWVAIACTTDKMFERLAEAMERPELASPELYGDQRKRLAARDIVNQITIEWVGSLTRDEVMRRCLEKEVPVGPLNSIADMFNDEHFLARGNFACIEAEGIGEVVVPNVIPRLSETPGRVTNLGPPLGNATYEVLRELLDISAEEIKRLRSRKII
chain 2: MDGTTTTLPLAGIRVIDAATVIAAPFCATLLGEFGADVLKVEHPIGGDALRRFGTPTARGDTLTWLSESRNKRSVTLNLQHPEGARVFKELIAHSDVLCENFRPGTLEKWGLGWDVLSKINPRLIMLRVTGYGQTGPYRDRPGFARIAHAVGGIAYLAGMPKGTPVTPGSTTLADYMTGLYGCIGVLLALRHREQTGRGQYIDAALYESVFRCSDELVPAYGMYRKVRERHGSHYNEFACPHGHFQTKDGKWVAISCATDKLFARLANAMGRPELASSSVYGDQKVRLAHASDVNEIVRDWCSSLTRAEVLERCYATATPAAPLNDIADFFGDRHVHARRNLVAIDAEDLGETLIMPNVVPKLSETPGSIRSLGPKLGEHTEEVLKEILGMCDEQINDLRSKRVI
Work on B5 yielded a Km (purified protein [8]) of 910 µM and a Km (purified protein [9]; malate co-substrate) of 960 µM.

B6: mesaconyl-CoA hydratase (Mch) (Cereibacter sphaeroides 2.4.1) (protein)
chain: MKTNAGRFFEDYRLGETIAHAVPRTVSGGERALYHALYPARHALSSSDEFARACGLPAAPVDELMAFHLVFGKTVPDISLNAVANLGYAEGRWLKPVFPGDTLRAESTVIGLKENSNGASGVVWVRTRGLNQQGEAVLSYVRWVMVRKRDTAAPAPAPTVPELAGSVAASDLVIPEGLSFTDYDLTLAGEPHRWGDYAVGEKIDHVDGVTVEESEHMLATRLWQNTAKVHFDATNRPDGRRLIYGGHVISLARTLSFNGLANAQMIVALNAGAHANPCFAGDTVRAWSEVLDKAETADPGVGALRLRLVAMKHGTEPFVTRSEDGKYLPGVLLDLDYWALVPR
Work on B6 yielded a Km (purified protein [10]) of 280 µM.

B7: (2S)-methylsuccinyl-CoA dehydrogenase (PmMcd) (Pseudomonas migulae) (protein)
chain: MLPITAADDVQGLLLQLRGLLEQAISALASRCTKGRQLDAELLDLMQVPTFELAWASAELLAAERSLQAIDAGTSSVDRRLILVFAVEAITLVHSRLEAIYAELDLADGTLHAIAADQKLRALRRSVLSSTALHDSARLMVERPEQIGQVAMGDELSMIEDQFRRFAADTVAPLAEHIHREDLIIPDSLLAALRDMGVFGLSIPERYGGSAPDDQEDPLTMIVVTEALSQASLAAAGSLITRPEILSRALLSGGTESQKQHWLARLAVGDPLCAIAITEPDYGSDVAGLTLRGTPCEGGWRLNGAKTWCTFAGKAGVLMVVTRTNPDKSLGHRGLSLLLAEKPSYDGHEFDFRQPGGGSLTGRAIPTIGYRGMHSFDLSFEDFFVPDGNVIGEAQGLGKGFYHTMAGMTGGRMQTAGRASGVMRAALLAGLRYATERKVFGSPLLDYPLTGAKLTKMAARYVASRYLTYSVGRMLAQGEGRMEASLVKLFACRSAELVTRESLQIHGGMGYAEEVAVSRYFVDARVLSIFEGAEETLALKVIGRSLLEAALKAEAA
B7 was tested, and the Km (purified protein [9]; ferrocenium electron acceptor) was 78 µM.
